Experimental data as given in PMC4358365, “Conserved mechanisms of microtubule-stimulated ADP release, ATP binding, and force generation in transport kinesins” (eLife, 2014).

B1: human kinesin-3 (Kin3) motor domain construct (Kif1A, residues 1–361) (domain or fragment)
chain: MAGASVKVAVRVRPFNSREMSRDSKCIIQMSGSTTTIVNPKQPKETPKSFSFDYSYWSHTSPEDINYASQKQVYRDIGEEMLQHAFEGYNVCIFAYGQTGAGKSYTMMGKQEKDQQGIIPQLCEDLFSRINDTTNDNMSYSVEVSYMEIYCERVRDLLNPKNKGNLRVREHPLLGPYVEDLSKLAVTSYNDIQDLMDSGNKARTVAATNMNETSSRSHAVFNIIFTQKRHDAETNITTEKVSKISLVDLAGSERADSTGAKGTRLKEGANINKSLTTLGKVISALAEMDSGPNKNKKKKKTDFIPYRDSVLTWLLRENLGGNSRTAMVAALSPADINYDETLSTLRYADRAKQIRCNAVIN

Molecular target: paclitaxel-stabilised microtubule polymerised from bovine αβ-tubulin (bovine) (UniProt Q6B856)
Sequence of UniProt Q6B856 (Q6B856 whole entry, looked up): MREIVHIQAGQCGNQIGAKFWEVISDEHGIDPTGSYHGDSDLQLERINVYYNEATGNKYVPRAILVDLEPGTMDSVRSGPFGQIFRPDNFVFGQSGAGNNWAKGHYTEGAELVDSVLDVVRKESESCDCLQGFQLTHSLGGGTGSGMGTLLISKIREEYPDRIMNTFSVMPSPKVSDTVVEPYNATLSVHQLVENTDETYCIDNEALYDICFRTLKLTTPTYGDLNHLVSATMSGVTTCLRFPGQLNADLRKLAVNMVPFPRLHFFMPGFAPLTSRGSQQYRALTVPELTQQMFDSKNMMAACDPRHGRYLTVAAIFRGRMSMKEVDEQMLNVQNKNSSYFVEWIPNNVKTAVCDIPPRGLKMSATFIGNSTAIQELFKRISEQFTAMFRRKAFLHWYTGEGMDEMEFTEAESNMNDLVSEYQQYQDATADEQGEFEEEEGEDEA

Molecule | K (0.5 MT) of the steady-state MT-activated ATPase (10 nM motor domain, paclitaxel-stabilised MTs, 20°C)
human kinesin-1 (Kin1) motor domain construct (Kif5A, residues 1–340) (from UniProt Q12840 1-340) (domain or fragment) | 12.7 µM
B1 | 0.0537 µM
